From PMC5025710, “The N-terminal domain plays a crucial role in the structure of a full-length human mitochondrial Lon protease” (Scientific Reports, 2016) come the findings set out here.

In data set [1] the target is proteolytically inactive human mitochondrial Lon protease mutant hLon S855A (human) (UniProt P36776). Briefly: cryo-EM structure; hLon S855A incubated with 1 mM ADP, 1 mg/ml diluted 5× in buffer B (20 mM HEPES pH 8.0, 150 mM NaCl, 5 mM MgCl2); map at 21 Å.
Data set [2] shares this target. The data set can be described thus: cryo-EM structure; hLon S855A incubated with 1 mM AMP-PNP, 1 mg/ml diluted 5× in buffer B (20 mM HEPES pH 8.0, 150 mM NaCl, 5 mM MgCl2); map at 15 Å.
Data set [3] concerns the molecule itself. The data set can be described thus: cryo-EM 2D class averages; hLonΔ270, 1 mg/ml diluted 5× in buffer B; 2D class averages (Relion) compared with projections of five and six fitted 3M6A subunits; no 3D map.
In data set [4] the target is T1, hLonΔ270 mutant (Δ1–270), human Lon lacking its first 270 amino acids (human) (UniProt P36776).
T1 sequence: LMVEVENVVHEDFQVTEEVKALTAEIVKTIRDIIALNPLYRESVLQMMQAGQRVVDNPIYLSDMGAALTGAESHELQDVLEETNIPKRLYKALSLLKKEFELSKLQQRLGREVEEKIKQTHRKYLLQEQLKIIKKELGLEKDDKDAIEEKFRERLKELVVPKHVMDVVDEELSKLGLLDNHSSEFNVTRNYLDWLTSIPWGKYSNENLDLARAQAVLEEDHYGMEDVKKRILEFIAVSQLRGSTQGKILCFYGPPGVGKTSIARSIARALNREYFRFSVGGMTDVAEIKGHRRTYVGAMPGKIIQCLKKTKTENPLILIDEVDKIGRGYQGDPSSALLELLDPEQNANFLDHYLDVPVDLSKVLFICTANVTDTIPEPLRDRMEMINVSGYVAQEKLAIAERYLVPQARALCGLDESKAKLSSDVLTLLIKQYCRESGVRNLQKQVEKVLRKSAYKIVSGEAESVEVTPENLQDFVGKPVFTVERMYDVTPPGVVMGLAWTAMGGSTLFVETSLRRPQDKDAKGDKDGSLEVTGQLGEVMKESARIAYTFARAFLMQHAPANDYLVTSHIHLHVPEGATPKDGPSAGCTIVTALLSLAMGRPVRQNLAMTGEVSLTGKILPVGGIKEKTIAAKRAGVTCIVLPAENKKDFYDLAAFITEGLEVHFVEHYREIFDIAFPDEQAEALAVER

With “proteolytically inactive human mitochondrial Lon protease mutant hLon S855A (from UniProt P36776 68-959) (enzyme)”, the stoichiometry N in data set [1] and in data set [2] was 6 in each case.

B1: hLonΔ270 mutant (Δ1–270), human Lon lacking its first 270 amino acids (domain or fragment, UniProt P36776 271-959, looked up)
chain: T1 sequence
notes: primers Lon_271_FW and Lon_960_RV (to the stop codon); A few vector residues probably remain after PreScission cleavage (surmised from the primer); also called shortened hLon; source: in-fusion cloning into pOPINJ; not shown: 6×His-GST, N-terminal, cleaved
Regarding B1, in data set [3], the “stoichiometry N” value was 6.

B2: β-casein (natural protein)
chain: RELEELNVPGEIVESLSSSEESITRINKKIEKFQSEEQQQTEDELQDKIHPFAQTQSLVYPFPGPIPNSLPQNIPPLTQTPVVVPPFLQPEVMGVSKVKEAMAPKHKEMPFPKYPVEPFTESQSLTLTDVENLHLPLPLLQSWMHQPHQPLPPTVMFPPQSVLSLSQSKVLPVPQKAVPYPQRDMPIQAFLLYQEPVLGPVRGPFPIIV
With B2, in data set [4], the stimulation of the ATPase activity of hLonΔ270 by β-casein (25 μg β-casein, 5 μg hLon, 37 °C) came to 2 fold and the stimulation of the peptidase activity of hLonΔ270 (glutaryl-Ala-Ala-Phe-MNA) by β-casein (25 μg β-casein, 5 μg hLon, 37 °C) was 2 fold.
